The text below walks through data of article PMC4253602 (Molecular oncology, 2014).

What all share (assay): two-hybrid
The target in assay [1] is full-length T877A-AR (VP16 fusion) (human).
For assay [2] the target is unchanged. The source holds these as a separate data set.
Assay [3] addresses T1, full-length wt-AR (VP16 fusion) (human, UniProt P10275 1-920).
T1 sequence (looked up): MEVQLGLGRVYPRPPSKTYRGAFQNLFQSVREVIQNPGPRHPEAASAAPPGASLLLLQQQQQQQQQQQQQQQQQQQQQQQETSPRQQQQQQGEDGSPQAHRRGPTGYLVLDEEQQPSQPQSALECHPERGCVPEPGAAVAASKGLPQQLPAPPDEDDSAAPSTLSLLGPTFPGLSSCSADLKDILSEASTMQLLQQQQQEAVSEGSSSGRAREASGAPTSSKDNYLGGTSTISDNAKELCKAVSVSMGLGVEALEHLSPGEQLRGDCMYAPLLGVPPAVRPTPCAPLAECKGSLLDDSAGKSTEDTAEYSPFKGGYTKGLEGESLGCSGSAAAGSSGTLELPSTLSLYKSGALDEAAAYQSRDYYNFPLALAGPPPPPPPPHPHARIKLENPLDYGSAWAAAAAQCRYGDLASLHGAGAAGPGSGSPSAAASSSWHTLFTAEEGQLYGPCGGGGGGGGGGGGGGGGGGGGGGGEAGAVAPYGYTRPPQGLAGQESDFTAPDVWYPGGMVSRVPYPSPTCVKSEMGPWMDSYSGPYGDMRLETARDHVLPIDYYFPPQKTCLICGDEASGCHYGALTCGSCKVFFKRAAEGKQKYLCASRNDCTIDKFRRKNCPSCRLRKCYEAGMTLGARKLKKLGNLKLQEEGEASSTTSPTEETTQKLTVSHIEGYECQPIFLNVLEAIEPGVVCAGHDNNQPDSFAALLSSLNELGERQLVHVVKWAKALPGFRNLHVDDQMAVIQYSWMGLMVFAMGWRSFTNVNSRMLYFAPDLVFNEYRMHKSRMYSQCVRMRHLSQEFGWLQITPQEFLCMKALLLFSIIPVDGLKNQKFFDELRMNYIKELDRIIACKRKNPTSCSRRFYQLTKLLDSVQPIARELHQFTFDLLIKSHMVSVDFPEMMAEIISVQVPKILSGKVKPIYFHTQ

Read-outs that look alike come from different tables or passages of the source.

B1: HF-26 (Gal-4 fusion) (peptide)
peptide: HASPFEMHYLLG
With B1, the values for the two-hybrid reporter activity (Gal-4 = 1) in assay [1], in assay [2] and in assay [3] were 8400, 8900 and 8900, respectively.

B2: B311 (Gal-4 fusion) (peptide)
peptide: HKASPFNYYYLN
Turning to B2, in assay [3], the “two-hybrid reporter activity (Gal-4 = 1)” value was found to be 46.

B3: A310 (Gal-4 fusion) (peptide)
peptide: SHSSFYQYYLDN
With B3, the two-hybrid reporter activity (Gal-4 = 1) was found to be 3590 in assay [1], 4460 in assay [2] and 4770 in assay [3].

B4: B46 (Gal-4 fusion) (peptide)
peptide: ANSSFRDWYTSS
Regarding B4, the results for the two-hybrid reporter activity (Gal-4 = 1) in assay [1], in assay [2] and in assay [3] were 376, 1260 and 792, respectively.

B5: B423 (Gal-4 fusion) (peptide)
peptide: SPTRLFDHLYMT
On to B5, for which the two-hybrid reporter activity (Gal-4 = 1) in assay [1] was found to be 401; in assay [2], 168; in assay [3] it was 1220.

B6: B414 (Gal-4 fusion) (peptide)
peptide: NPRTPTTFERYY
Turning to B6, the “two-hybrid reporter activity (Gal-4 = 1)” value in assay [3] worked out at 18.

B7: B411 (Gal-4 fusion) (peptide)
peptide: HPARTSFETHYM
For B7, the two-hybrid reporter activity (Gal-4 = 1) in assay [2] stood at 16; in assay [3], 13.

B8: A41 (Gal-4 fusion) (peptide)
peptide: SSGGFERFYIAQ
Regarding B8, the two-hybrid reporter activity (Gal-4 = 1) in assay [1] came to 3060; in assay [2], 3510; in assay [3], 4310.

B9: C317 (Gal-4 fusion) (peptide)
peptide: TEPPAAFRQLFF
For B9, the values for the two-hybrid reporter activity (Gal-4 = 1) in assay [1], in assay [2] and in assay [3] were 5230, 4380 and 6600, respectively.

B10: C33 (Gal-4 fusion) (peptide)
peptide: STFESLYNNMTA
Regarding B10, the two-hybrid reporter activity (Gal-4 = 1) was 1020 in assay [1], 399 in assay [2] and 1330 in assay [3].

B11: D30 (Gal-4 fusion) (peptide)
peptide: HPTHSSRLWELLMEATPTM
As for B11, the two-hybrid reporter activity (Gal-4 = 1) in assay [1] is 18100; in assay [2], 8800; in assay [3], 19900.

B12: A48 (Gal-4 fusion) (peptide)
peptide: DPPTSKFSTFYQ
Turning to B12, in assay [3], the “two-hybrid reporter activity (Gal-4 = 1)” value worked out at 32.

B13: B32 (Gal-4 fusion) (peptide)
peptide: NTTDTLFSQHYR
For B13, in assay [3], the “two-hybrid reporter activity (Gal-4 = 1)” value stood at 41.

B14: B45 (Gal-4 fusion) (peptide)
peptide: NTPLFQTFYNQR
Take B14: the two-hybrid reporter activity (Gal-4 = 1) in assay [1] amounted to 12600; in assay [2], 17200; in assay [3], 18000.

B15: ARN20 (Gal-4 fusion) (peptide)
peptide: RGAFQNLFQSV
In the case of B15, the two-hybrid reporter activity (Gal-4 = 1) was 1580 in assay [1], 1420 in assay [2] and 1310 in assay [3].

B16: B37 (Gal-4 fusion) (peptide)
peptide: HNTKFSTFYNMD
For B16, the figures for the two-hybrid reporter activity (Gal-4 = 1) in assay [1], in assay [2] and in assay [3] were 6240, 8710 and 9160, respectively.

B17: B426 (Gal-4 fusion) (peptide)
peptide: EASNSSFARLFH
Turning to B17, the results for the two-hybrid reporter activity (Gal-4 = 1) in assay [1], in assay [2] and in assay [3] were 9550, 1510 and 13500, respectively.

B18: B34 (Gal-4 fusion) (peptide)
peptide: SPFEEHYLSTQS
Consider B18, for which the values for the two-hybrid reporter activity (Gal-4 = 1) in assay [1] and in assay [3] were 37 and 42, respectively.

B19: B49 (Gal-4 fusion) (peptide)
peptide: SKFSQLYSYEPP
On to B19, for which the two-hybrid reporter activity (Gal-4 = 1) came to 1030 in assay [1], 318 in assay [2] and 1790 in assay [3].

B20: BUD31 peptide (Gal-4 fusion) (peptide)
peptide: KTRYIFDLFYKRKAY
For B20, the two-hybrid reporter activity (Gal-4 = 1) was determined as 12000 in assay [1], 4870 in assay [2] and 8940 in assay [3].

B21: C314 (Gal-4 fusion) (peptide)
peptide: SSFADLWRNEAT
For the molecule B21, the two-hybrid reporter activity (Gal-4 = 1) in assay [1] turned out to be 859; in assay [2] it was 121; in assay [3], 1140.

B22: A47 (Gal-4 fusion) (peptide)
peptide: DSQYSSFSRYYK
On to B22, for which the “two-hybrid reporter activity (Gal-4 = 1)” value in assay [3] was found to be 21.

B23: #3-18 (Gal-4 fusion) (peptide)
peptide: NTNAFSRLFYPS
As for B23, the values for the two-hybrid reporter activity (Gal-4 = 1) in assay [1] and in assay [3] were 11000 and 12500, respectively.

B24: A43 (Gal-4 fusion) (peptide)
peptide: PAPKFKEFFYAE
As to B24, the values for the two-hybrid reporter activity (Gal-4 = 1) in assay [1], in assay [2] and in assay [3] were 7350, 8300 and 8840, respectively.

B25: C320 (Gal-4 fusion) (peptide)
peptide: SDSAFSRLYTRS
With B25, the two-hybrid reporter activity (Gal-4 = 1) in assay [1] was 12700; in assay [2] it was 4650; in assay [3] it was 13400.

B26: C41 (Gal-4 fusion) (peptide)
peptide: SFYDFYNGASTP
For B26, in assay [3], the “two-hybrid reporter activity (Gal-4 = 1)” value stood at 23.

B27: HF-15 (Gal-4 fusion) (peptide)
peptide: HTSMFESFFRKE
Turning to B27, the two-hybrid reporter activity (Gal-4 = 1) was determined as 13900 in assay [1], 14500 in assay [2] and 11500 in assay [3].

B28: B310 (Gal-4 fusion) (peptide)
peptide: SPTPHFTRLFHY
Regarding B28, the two-hybrid reporter activity (Gal-4 = 1) in assay [1] was 12100; in assay [2], 6720; in assay [3] it was 17800.

B29: A49 (Gal-4 fusion) (peptide)
peptide: VLPGSTFERFYR
Turning to B29, the two-hybrid reporter activity (Gal-4 = 1) is 26 in assay [1] and 25 in assay [3].
